Molecular target: biotinylated soluble single-chain Vb8-Va3 TCR (mouse)
Test: flow cytometry titration of whole yeast cells with biotinylated scTCR, Scatchard analysis; assumes 100% active scTCR

Kd: 500 nM
Substance: wt scFv-KJ16 displayed on yeast as Aga2p-HA-scFv-KJ16-c-myc fusion (from UniProt P32781 19-87)
